Laboratory results published in patent US6627405 (CURAGEN, dated 2003).

T1: pRb (GenBank Acc. No. M28419) (UniProt P06400 1-928, limits assumed)
T1 construct: Expressed as a Gal4 hybrid in yeast
T1 sequence (looked up): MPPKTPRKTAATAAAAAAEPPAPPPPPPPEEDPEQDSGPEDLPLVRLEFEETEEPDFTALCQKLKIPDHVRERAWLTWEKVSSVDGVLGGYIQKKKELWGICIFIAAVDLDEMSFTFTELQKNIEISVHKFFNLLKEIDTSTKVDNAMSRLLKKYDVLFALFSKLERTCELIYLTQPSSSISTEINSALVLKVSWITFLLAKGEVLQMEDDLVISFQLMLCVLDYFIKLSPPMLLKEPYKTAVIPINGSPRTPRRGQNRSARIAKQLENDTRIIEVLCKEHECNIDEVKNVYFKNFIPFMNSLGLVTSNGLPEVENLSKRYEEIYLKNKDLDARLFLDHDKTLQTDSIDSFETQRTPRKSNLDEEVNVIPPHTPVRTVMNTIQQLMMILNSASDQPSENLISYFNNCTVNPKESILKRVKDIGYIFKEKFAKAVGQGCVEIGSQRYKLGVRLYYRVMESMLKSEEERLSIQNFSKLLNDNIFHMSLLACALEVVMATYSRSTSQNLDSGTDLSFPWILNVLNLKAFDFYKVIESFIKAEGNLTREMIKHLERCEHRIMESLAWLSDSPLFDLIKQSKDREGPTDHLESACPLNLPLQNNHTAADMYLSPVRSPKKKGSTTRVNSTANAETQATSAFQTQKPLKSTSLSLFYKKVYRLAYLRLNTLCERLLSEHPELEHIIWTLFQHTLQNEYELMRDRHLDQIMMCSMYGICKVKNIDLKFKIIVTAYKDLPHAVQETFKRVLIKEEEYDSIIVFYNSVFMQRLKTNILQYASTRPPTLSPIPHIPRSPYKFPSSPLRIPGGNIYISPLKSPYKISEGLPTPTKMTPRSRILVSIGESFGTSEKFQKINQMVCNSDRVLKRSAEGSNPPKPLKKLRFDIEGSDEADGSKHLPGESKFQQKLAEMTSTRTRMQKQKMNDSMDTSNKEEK

T2: Ral GDS (GenBank Acc. No. U14417) (UniProt Q12967 1-914, limits assumed)
T2 construct: Expressed as a Gal4 hybrid in yeast
T2 sequence (looked up): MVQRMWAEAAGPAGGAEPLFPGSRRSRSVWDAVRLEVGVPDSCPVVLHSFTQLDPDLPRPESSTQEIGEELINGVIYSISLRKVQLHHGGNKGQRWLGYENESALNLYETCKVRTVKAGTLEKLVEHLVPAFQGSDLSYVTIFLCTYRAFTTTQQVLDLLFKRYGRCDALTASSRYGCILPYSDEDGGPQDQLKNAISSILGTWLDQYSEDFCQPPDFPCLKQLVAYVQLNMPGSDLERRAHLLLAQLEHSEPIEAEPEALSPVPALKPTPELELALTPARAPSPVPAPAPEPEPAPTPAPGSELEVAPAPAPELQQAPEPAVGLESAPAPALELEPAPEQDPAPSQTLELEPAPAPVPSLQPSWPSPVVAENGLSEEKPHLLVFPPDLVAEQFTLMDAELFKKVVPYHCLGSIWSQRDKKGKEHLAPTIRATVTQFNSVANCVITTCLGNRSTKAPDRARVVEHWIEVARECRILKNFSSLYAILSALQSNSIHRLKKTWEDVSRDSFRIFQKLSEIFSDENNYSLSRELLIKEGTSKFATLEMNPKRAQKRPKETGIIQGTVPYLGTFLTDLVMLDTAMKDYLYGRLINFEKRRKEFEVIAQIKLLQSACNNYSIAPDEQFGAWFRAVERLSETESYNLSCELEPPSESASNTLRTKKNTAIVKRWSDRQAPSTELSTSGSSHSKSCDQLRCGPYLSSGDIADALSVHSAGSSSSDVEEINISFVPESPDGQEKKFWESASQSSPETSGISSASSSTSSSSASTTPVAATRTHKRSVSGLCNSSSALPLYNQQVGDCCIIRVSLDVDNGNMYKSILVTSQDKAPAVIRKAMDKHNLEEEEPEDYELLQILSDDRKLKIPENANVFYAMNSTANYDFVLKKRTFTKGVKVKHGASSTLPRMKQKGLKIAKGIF

T3: CAS (GenBank Acc. No. U33286) (UniProt P55060 1-971, limits assumed)
T3 construct: Bait hybrid expressed in yeast strain N106r
T3 sequence (looked up): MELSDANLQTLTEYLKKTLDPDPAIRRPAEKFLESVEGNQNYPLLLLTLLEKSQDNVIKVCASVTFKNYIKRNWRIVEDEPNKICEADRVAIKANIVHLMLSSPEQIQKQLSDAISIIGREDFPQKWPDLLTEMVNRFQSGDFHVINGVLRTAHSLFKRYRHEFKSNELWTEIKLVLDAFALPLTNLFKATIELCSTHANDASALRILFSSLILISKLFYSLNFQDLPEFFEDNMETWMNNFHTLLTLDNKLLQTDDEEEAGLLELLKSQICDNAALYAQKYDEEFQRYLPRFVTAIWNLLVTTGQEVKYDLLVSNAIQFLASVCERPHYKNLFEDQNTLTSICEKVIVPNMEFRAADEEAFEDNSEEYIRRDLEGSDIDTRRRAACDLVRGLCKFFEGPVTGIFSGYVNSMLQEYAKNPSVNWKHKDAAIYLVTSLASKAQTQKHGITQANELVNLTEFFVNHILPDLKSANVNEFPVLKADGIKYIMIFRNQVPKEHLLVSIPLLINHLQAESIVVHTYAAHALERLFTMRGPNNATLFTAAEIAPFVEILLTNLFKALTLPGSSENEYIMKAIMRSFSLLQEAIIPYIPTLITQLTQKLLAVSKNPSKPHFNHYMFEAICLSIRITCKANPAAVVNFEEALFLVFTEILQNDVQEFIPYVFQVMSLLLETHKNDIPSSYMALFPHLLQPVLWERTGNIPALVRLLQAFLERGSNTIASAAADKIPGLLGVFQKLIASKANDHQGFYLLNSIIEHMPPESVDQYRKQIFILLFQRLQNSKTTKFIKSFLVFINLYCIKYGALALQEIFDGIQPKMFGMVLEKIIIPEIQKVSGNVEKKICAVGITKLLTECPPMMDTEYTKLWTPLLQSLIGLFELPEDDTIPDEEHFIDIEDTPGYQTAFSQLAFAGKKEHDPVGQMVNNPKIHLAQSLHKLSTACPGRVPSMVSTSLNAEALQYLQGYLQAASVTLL


Columns and labels:
Test in all cases: yeast two hybrid mating, growth on selective medium
[1] = target: T1, pRb (GenBank Acc. No. M28419)
Procedure: (§1) The two mating strains, alpha and a, were then, diluted in YAPD media (Sherman et al., eds., 1991, *Getting Started with Yeast*, Vol. 194, Academic Press, New York), filtered onto nitrocellulose membranes, and incubated at 30 degrees Celsius for 6–8 hours. The cells were then transferred to media selective for the desired diploids, i.e., yeast harboring reporter genes for beta-galactosidase, uracil auxotrophy, and histidine auxotrophy, and expression of the vectors encoding the bait and prey. The mating products were plated on SC (synthetic complete) (Kaiser et al. eds., 1994, *Methods in Genetics*, 1994 ed., Cold Spring Harbor Press, New York, p. 209) media lacking adenine and lysine (to select for successful mating), leucine and tryptophan (to select for expression of genes encoded by both the bait and prey plasmids), and uracil and histidine (to select for protein interactions). This medium is herein referred to as SCS medium, for SC Selective medium.
(§2) No. X03541, Martin-Zanca, et al., 1986, Nature 319: 743–748), EST M62042 (Adams et al., 1991, Science 252: 1651–1656), Ral GDS (GenBank Acc. No. U14417, Hofer, et al., 1994, Proc. Natl. Acad. Sci. U.S.A. 91: 11089–11093) or E2F (GenBank Acc. […] No. M92424, Oliner et al., 1994, direct submission), CAS (GenBank Acc. No. U33286, Brinkmann et al., 1995, Proc. Natl. Acad. Sci. U.S.A. 92: 10427–10431), and PA9 (GenBank Acc. No. S82076, Yang et al., 1996, Carcinogenesis 17:563–567) Specifically, lack of growth for p62 and β-tubulin interactions with MDM2 is depicted in FIG. 7.

[2] = target: T2, Ral GDS (GenBank Acc. No. U14417)
Procedure: as §1, §2

[3] = target: T4, MDM2 (GenBank Acc. No. M92424) (UniProt Q00987 1-491, limits assumed)
T4 construct: Bait hybrid expressed in yeast strain N106r; also called MDM2 bait
T4 sequence (Q00987 whole entry, one chain of several): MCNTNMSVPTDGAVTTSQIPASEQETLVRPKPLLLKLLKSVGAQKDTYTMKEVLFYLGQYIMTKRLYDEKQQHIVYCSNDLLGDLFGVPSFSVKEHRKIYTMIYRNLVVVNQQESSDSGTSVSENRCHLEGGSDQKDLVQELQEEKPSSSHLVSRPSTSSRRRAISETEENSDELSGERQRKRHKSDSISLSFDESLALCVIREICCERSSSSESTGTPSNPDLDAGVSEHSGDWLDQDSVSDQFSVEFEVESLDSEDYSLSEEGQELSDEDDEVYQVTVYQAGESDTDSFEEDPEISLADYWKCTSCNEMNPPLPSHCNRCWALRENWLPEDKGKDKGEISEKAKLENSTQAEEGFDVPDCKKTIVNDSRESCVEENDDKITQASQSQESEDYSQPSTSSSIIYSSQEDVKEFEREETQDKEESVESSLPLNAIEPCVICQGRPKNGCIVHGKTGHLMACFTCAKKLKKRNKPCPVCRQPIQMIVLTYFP
Procedure: as §1, §2

[4] = target: T3, CAS (GenBank Acc. No. U33286)
Procedure: as §1, §2

Row | binding result [1] | binding result [2] | binding result [3] | binding result [4] | Binder
1 | no binding | no binding |  |  | 53BP2 bait fragment, amino acids 704-1005 (C-terminus) of human 53BP2 (other, also called BBP; not shown: residues not) SPGLDYEPEGVPDNSPNLQNNPEEPNPEAPHVLDVYLEEYPPYPPPPYPSGEPEGPGEDSVSMRPPEITGQVSLPPGKRTNLRKTGSERIAHGMRVKFNPLALLLDSSLEGEFDLVQRIIYEVDDPSLPNDEGITALHNAVCAGHTEIVKFLVQFGVNVNAADSDGWTPLHCAASCNNVQVCKFLVESGAAVFAMTYSDMQTAADKCEEMEEGYTQCSQFLYGVQEKMGIMNKGVIYALWDYEPQNDDELPMKEGDCMTIIHREDEDEIEWWWARLNDKEGYVPRNLLGLYPRIKPRQRSLA
2 |  |  | no binding | no binding | p62 prey sequence, amino acids 275-443 (other, yeast) NGVPEPSRGRGVPVRGRGAAPPPPPVPRGRGVGPPRGALVRGTPVRGAITRGATVTRGVPPPPTVRGAPAPRARTAGIQRIPLPPPPAPETYEEYGYDDTYAEQSYEGYEGYYSQSQGDSEYYDYGHGEVQDSYEAYGQDDWNGTRPSLKAPPARPVKGAYREHPYGRY
